Measured values reported in patent US20250144178A1, “PHARMACEUTICAL COMPOSITION FOR CANCER TREATMENT COMPRISING FUSION PROTEIN INCLUDING IL-12 AND ANTI-FAP ANTIBODY AND ANTICANCER AGENT” (KANAPH THERAPEUTICS INC., priority 2022, published 2025).

Assays:
[1] = target: mouse FAP (fibroblast activation protein alpha) overexpressed in B16F10 cells (B16F10-mFAP) (mouse) (UniProt P97321); assay: flow cytometry on B16F10-mFAP cells, anti-mouse IgG2a antibody alone
[2] = target: B16F10; assay: flow cytometry on parental B16F10 cells, anti-mouse IgG2a antibody alone
[3] = target: human FAP (fibroblast activation protein alpha) overexpressed in HEK293 cells (HEK293-hFAP) (human) (UniProt Q12884); assay: flow cytometry on HEK293-hFAP cells, anti-human IgG antibody alone
Chain of human FAP (fibroblast activation protein alpha) overexpressed in HEK293 cells (HEK293-hFAP) (human) (Q12884 whole entry): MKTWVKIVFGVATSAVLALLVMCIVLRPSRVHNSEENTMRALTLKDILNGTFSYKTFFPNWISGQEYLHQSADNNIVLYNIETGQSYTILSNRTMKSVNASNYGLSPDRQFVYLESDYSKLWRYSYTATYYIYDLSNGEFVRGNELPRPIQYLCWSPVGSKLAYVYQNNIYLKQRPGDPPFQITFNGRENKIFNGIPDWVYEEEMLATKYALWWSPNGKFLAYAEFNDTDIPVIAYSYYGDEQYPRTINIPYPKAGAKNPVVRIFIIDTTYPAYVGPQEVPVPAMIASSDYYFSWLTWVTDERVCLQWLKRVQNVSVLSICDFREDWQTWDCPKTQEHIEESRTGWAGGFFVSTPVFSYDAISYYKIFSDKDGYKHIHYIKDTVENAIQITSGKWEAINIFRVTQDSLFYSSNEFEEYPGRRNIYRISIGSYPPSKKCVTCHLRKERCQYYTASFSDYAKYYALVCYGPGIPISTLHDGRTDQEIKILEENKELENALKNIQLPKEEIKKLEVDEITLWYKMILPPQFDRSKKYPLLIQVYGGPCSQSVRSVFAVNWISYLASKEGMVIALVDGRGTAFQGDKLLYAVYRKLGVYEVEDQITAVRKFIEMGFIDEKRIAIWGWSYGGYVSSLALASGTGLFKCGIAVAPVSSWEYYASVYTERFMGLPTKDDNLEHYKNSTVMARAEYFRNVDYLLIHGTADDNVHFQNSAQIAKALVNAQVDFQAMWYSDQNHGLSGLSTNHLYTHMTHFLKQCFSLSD

[4] = target: IL-12 receptor of human T cells (human) (UniProt P42701); assay: cell-based or functional assay
Chain of IL-12 receptor of human T cells (human) (Q99665 24-862, chain 2 of 2, other chains not shown): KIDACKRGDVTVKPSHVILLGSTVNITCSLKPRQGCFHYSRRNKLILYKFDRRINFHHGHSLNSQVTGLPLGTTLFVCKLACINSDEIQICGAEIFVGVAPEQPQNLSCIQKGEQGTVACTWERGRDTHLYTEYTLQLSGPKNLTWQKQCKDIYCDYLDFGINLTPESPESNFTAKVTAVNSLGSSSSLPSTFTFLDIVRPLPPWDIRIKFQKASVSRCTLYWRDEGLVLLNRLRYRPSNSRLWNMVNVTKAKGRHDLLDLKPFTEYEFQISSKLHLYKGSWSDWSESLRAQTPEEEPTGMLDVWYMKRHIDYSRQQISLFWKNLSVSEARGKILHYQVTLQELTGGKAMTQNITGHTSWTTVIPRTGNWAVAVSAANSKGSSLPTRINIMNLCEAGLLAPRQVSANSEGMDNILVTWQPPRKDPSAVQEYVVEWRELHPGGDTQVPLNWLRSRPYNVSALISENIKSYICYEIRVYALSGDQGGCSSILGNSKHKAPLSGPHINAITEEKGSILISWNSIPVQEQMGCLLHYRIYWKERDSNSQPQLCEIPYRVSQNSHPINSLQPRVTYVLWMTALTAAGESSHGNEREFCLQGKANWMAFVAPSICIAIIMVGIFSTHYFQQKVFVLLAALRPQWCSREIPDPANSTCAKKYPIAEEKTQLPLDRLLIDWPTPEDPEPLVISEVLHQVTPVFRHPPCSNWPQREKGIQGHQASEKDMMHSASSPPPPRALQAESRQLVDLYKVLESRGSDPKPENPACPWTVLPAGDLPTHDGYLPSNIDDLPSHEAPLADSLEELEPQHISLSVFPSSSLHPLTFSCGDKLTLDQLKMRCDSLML

Chain of mouse FAP (fibroblast activation protein alpha) overexpressed in B16F10 cells (B16F10-mFAP) (mouse) (P97321 whole entry): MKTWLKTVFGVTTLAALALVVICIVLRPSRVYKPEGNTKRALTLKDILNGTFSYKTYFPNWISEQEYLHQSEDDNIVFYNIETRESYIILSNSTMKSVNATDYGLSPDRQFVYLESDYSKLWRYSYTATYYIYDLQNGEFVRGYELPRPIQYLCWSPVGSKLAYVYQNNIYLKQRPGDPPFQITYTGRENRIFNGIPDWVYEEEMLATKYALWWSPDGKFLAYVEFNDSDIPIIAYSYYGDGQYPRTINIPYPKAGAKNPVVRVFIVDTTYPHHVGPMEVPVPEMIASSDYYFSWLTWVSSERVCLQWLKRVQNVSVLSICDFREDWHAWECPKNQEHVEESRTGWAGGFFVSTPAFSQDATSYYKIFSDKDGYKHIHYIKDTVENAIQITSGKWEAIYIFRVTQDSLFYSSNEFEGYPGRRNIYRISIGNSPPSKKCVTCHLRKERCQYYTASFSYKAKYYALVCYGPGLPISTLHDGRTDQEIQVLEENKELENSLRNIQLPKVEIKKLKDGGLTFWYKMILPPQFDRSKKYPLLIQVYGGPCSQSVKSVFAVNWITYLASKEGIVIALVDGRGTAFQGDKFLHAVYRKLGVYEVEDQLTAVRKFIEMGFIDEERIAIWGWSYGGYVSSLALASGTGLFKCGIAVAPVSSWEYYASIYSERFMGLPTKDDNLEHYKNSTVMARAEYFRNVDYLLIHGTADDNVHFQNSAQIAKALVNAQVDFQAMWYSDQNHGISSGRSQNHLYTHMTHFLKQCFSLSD

Q: For 2nd Ab only (antibody), which percent of cells in the positive gate (mFAP-PE) [1] is on record?
A: 3.44%

Q: What about the percent of cells in the positive gate (mFAP-PE) [2] of the same substance?
A: 1.04%

Q: With 2nd only (antibody) as the substance, how does the percent of cells in the positive gate (hFAP-PE) [3] read?
A: 0.16%

Q: Which half maximal effective concentration (EC50) of p-STAT4 (Tyr693), AlphaLISA, activated human T cells [4] does the source give for “recombinant human IL-12 (from UniProt P29459 23-219; P29460 23-328) (ligand)” here?
A: 8.95 pM
